Laboratory results: article PMC8599806

Molecular target: RECQL (UniProt P46063)
Test: ID3 co-IP, Western blot
Conditions: reference: wild type ID3; sites S65

binding against the reference: lost
Substance: ID3 (from UniProt Q02535) S65A
